Legend:
NlpA-ZZ fusion protein [1] = assay: flow cytometry of NlpA-ZZ spheroplasts labeled with 5 nM FITC-conjugated Human IgG; residual fluorescence at Time 30 min
NlpA-ZZ fusion protein [2] = assay: flow cytometry of NlpA-ZZ spheroplasts labeled with 5 nM FITC-conjugated Human IgG; residual fluorescence at Time 1440 min
NlpA-ZZ fusion protein [3] = assay: flow cytometry of NlpA-ZZ spheroplasts labeled with 5 nM FITC-conjugated Human IgG; residual fluorescence at Time 180 min
NlpA-ZZ fusion protein [4] = assay: flow cytometry of NlpA-ZZ spheroplasts labeled with 5 nM FITC-conjugated Human IgG; residual fluorescence at Time 240 min
NlpA-ZZ fusion protein [5] = assay: flow cytometry of NlpA-ZZ spheroplasts labeled with 5 nM FITC-conjugated Human IgG; residual fluorescence at Time 60 min
NlpA-ZZ fusion protein [6] = assay: flow cytometry of NlpA-ZZ spheroplasts labeled with 5 nM FITC-conjugated Human IgG; residual fluorescence at Time 10 min
NlpA-ZZ fusion protein [7] = assay: flow cytometry of NlpA-ZZ spheroplasts labeled with 5 nM FITC-conjugated Human IgG; residual fluorescence at Time 120 min
NlpA-ZZ fusion protein [8] = assay: flow cytometry of NlpA-ZZ spheroplasts labeled with 5 nM FITC-conjugated Human IgG; residual fluorescence at Time 4320 min
NlpA-ZZ fusion protein [9] = assay: flow cytometry of NlpA-ZZ spheroplasts labeled with 5 nM FITC-conjugated Human IgG; residual fluorescence at Time 20 min
NlpA-ZZ fusion protein [10] = assay: flow cytometry of NlpA-ZZ spheroplasts labeled with 5 nM FITC-conjugated Human IgG; residual fluorescence at Time 0 min
NlpA-ZZ fusion protein [11] = assay: flow cytometry of spheroplasts expressing NlpA-ZZ, labeled with 50 nM FITC-conjugated Human IgG

Substance “commercial Human IgG antibodies (FITC-conjugated) (antibody)” has a M (FL1-Height) (NlpA-ZZ fusion protein [1]) of 147, a M (FL1-Height) (NlpA-ZZ fusion protein [2]) of 146 and a M (FL1-Height) (NlpA-80R(scFv)) of 3. For the same substance, the M (FL1-Height) (NlpA-ZZ fusion protein [3]) was 148, the M (FL1-Height) (NlpA-ZZ fusion protein [4]) was 142 and the M (FL1-Height) (NlpA-ZZ fusion protein [5]) was 136. It also gave a M (FL1-Height) (NlpA-ZZ fusion protein [6]) of 150, a M (FL1-Height) (NlpA-ZZ fusion protein [7]) of 133 and a M (FL1-Height) (NlpA-ZZ fusion protein [8]) of 154. The M (FL1-Height) (NlpA-ZZ fusion protein [9]) was 143, the M (FL1-Height) (NlpA-ZZ fusion protein [10]) was 153 and the M (FL1-Height) (NlpA-ZZ fusion protein [11]) was 2760.
